Values joined by “and” are separate entries in the source; they are usually repeats but may differ in a detail not shown here. Identical values can stand only once.

The target of the test is Fz-CRD (biotinylated Fz5- and Fz8-CRD). Description: SPR, biotinylated Fz5- and Fz8-CRD on the chip, mini-Xwnt8 flowed over at several concentrations. For orientation: In SPR one partner is held on a chip, and binding of the other changes the refractive index at the surface.

A word on the Kd: it is the constant that tells how readily two partners part at equilibrium. Lower therefore signals tighter binding. In the case of “mini-XWnt8 (amino acid residues 248-338) (from UniProt P28026) (ligand)”, the Kd was 1000 nM and 2000 nM.
